Measurements as given in US20210403593A1 (TIZONA THERAPEUTICS, published 2021).
Numbering of substitutions follows the chain as printed.

B1: 27590 (antibody, V domains shown)
VH: QVQLVQSGAEVKKPGSSVKVSCKASGGTFSNYAISWVRQAPGQGLEWMGGIIPIFGTANYAQKFQGRVTITADESTSTAYMELSSLRSEDTAVYYCARGPTVTATTSIGTHNWFDPWGQGTLVTVSS
VL: EIVLTQSPATLSLSPGERATLSCRASQSVSSYLAWYQQKPGQAPRLLIYDASNRATGIPARFSGSGSGTDFTLTISSLEPEDFAVYYCQQRNFYPPTFGGGTKVEIK
B2: 27549 (antibody, human IgG4 S228P, kappa, V domains shown)
VH: QVQLVESGGGVVQPGRSLRLSCAASGFTFSSYGMNWVRQAPGKGLEWVAVIWYDGSNKYYADSVKGRFTISRDNSKNTLYLQMNSLRAEDTAVYYCARDLGGYSYGEPYYYYYGMDVWGQGTTVTVSS
VL: EIVLTQSPGTLSLSPGERATLSCRASQSVSSDYLAWYQQKPGQAPRLLIYGASSRATGIPDRFSGSGSGTDFTLTISRLEPEDFAVYYCQQAHSSPYTFGGGTKVEIKR
B3: 27588 (antibody, V domains shown)
VH: QVQLVQSGAEVKKPGSSVKVSCKASGGTFSNYAISWVRQAPGQGLEWMGGIIPIFGTANYAQKFQGRVTITADESTSTAYMELSSLRSEDTAVYYCARAKRGYDSYGGVYFDYWGQGTLVTVSS
VL: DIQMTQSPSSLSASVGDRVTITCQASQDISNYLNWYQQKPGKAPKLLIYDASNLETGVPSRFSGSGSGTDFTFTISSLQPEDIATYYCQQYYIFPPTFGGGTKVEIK
B4: 27571 (antibody, V domains shown)
VH: QVQLVQSGAEVKKPGSSVKASCKASGGTFSSYAISWVRQAPGQGLEWMGSIIPIFGTANYAQKFRGRVTITADESTSTTYMELSSLRSEDTAVYYCARESGGYRDHRLDVWGQGTMVTVSS
VL: EIVMTQSPATLSVSPGERATLSCRASQSVGSNLAWYQQKPGQAPRLLIYGASTRATGIPARFSGSGSGTEFTLTISSLQSEDFAVYYCQQYLIWPLTFGGGTKVEIK
B5: 31393 (antibody, human IgG4 S228P, kappa, V domains shown)
VH: B4 VH with A20V, S30E, A33G, I54E, T57I, R65Q
VL: EIVMTQSPATLSVSPGERATLSCRASQSVGSNLAWYQQKPGQAPRLLIYGASTRATGIPARFSGSGSGTEFTLTISSLQSEDFAVYYCQQYLLWPLTFGGGTKVEIKR
B6: 31861 (antibody, human IgG4 S228P, kappa, V domains shown)
VH: B4 VH with A20V, S30G, A33G, I54E, T57I, R65Q, T79A, G102T
VL: B5 VL
B7: 27579 (antibody, V domains shown)
VH: QVQLVQSGAEVKEPGASVKVSCKAPGYTFTSYYMHWVRQAPGQGLEWMGVINPSGGSTSYAQKFQGRVTMTRDTSTSTVYMELSSLRSEDTAVYYCARGKREGGTEYLRHWGQGTLVTVSS
VL: EIVLTQSPGTLSLSPGERATLSCRASQSVSSSYLAWYQQKPGQAPRLLIYGASSRATGIPDRFSGSGSGTDFTLTISRLEPEDFAVYYCQQYHSYITFGGGTKVEIK
B8: 31421 (antibody, V domains shown)
VH: B7 VH with E13K, P25S, T30F, H35Y, S54L, S57G
VL: B7 VL with R24K, Q27E, G51Y, S94R, Y95R
B9: 31429 (antibody, V domains shown)
VH: B7 VH with E13K, P25S, T30V, Y33F, V50S, S54R
VL: B7 VL with S28Y, G51Y, S54N, Y95G
B10: 31431 (antibody, V domains shown)
VH: B7 VH with E13K, P25S, Y33Q, V50R, S59W
VL: B7 VL with S30A, S54N, A56H, S94G, Y95G
B11: 29872 (antibody, V domains shown)
VH: B7 VH with E13K, P25S, T30K, Y33E, V50R, G55V, S59W
VL: B7 VL
notes: also called anti-CD39 antibody 29872
B12: 28347 (antibody, V domains shown)
VH: QVQLVQSGAEVKKPGSSVKVSCKASGGTFSSLAISWVRQAPGQGLEWMGGIIPIFGTANYAQKFQGRVTITADESTNTAYMELSSLRSEDTAVYYCARGGAKYASTYGMDVWGQGTTVTVSS
VL: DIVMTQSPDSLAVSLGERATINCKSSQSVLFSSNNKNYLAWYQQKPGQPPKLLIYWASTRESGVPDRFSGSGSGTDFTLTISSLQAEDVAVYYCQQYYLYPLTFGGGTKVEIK
B13: 27577 (antibody, human IgG4 S228P, kappa, V domains shown)
VH: QVQLVQSGAEVKKPGSSVKVSCKASGGAFSSYAIGWVRQAPGQGLEWMGGIIPTFGTANYAQKFQGRVTITADESTSTAYMELSSLRSEDTAVYYCARDGGGYQHHYFDLWGRGTLVTVSS
VL: B5 VL with Y91L, L92T, L93K
B14: 27536 (antibody, V domains shown)
VH: QVQLVQSGAEVKKPGSSVKVSCKASGGTFSNYAISWVRQAPGQGLEWMGGIIPIFGTANYAQKFQGRVTITADESTSTAYMELSSLRSEDTAVYYCARDTLYSSGAYYGYNVWGQGTMVTVSS
VL: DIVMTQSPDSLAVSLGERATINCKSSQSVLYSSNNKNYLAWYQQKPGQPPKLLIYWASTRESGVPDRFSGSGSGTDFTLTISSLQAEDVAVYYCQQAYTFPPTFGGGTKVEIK
B15: 27589 (antibody, human IgG4 S228P, kappa, V domains shown)
VH: QVQLVQSGAEVKKPGSSVKVSCKASGGTFSSYAISWVRQAPGQGLEWMGGIIPIFGTANYAQKFQGRVTITADESTSTAYMELSSLRSEDTAVYYCARDSGYHRHYSDYWGQGTLVTVSS
VL: DIQMTQSPSTLSASVGDRVTITCRASQSISSWLAWYQQKPGKAPKLLIYKASSLESGVPSRFSGSGSGTEFTLTISSLQPDDFATYYCQQYGLFPITFGGGTKVEIKR
B16: 27535 (antibody, human IgG4 S228P, kappa, V domains shown)
VH: QVQLVQSGAEVKKPGSSVKVSCKASGGTFSSYAISWVRQAPGQGLEWMGGIIPIFGTANYAQKFQGRVTITADESTSTAYMELSSLRSEDTAVYYCARDTPRWRYHYFDYWGQGTLVTVSS
VL: EIVLTQSPATLSLSPGERATLSCRASQSVSSYLAWYQQKPGQAPRLLIYDASKRATGIPARFSGSGSGTDFTLTISSLEPEDFAVYYCQQVLNYPLTFGGGTKVEIKR
B17: 27596 (antibody, human IgG4 S228P, kappa, V domains shown)
VH: B16 VH with T100P, P101L, R102G, W103I, Y105K, Y107W, Y110P
VL: B16 VL with L4M, K53N, V91H, L92T, N93V, Y94W, L96I
B18: 27568 (antibody, human IgG4 S228P, kappa, V domains shown)
VH: B4 VH with A20V, S21P, G42E, R65Q, T79A, R98G, R107K, M116V
VL: B16 VL with K53N, V91S, L92V, N93F, Y94W, L96I
B19: 27597 (antibody, human IgG4 S228P, kappa, V domains shown)
VH: QVQLVQSGAEVKKPGSSVKVSCKASGGTFSSYAISWVRQAPGQGLEWMGSIIPIFGTANYAQKFQGRVTITADESTSTAYMELSSLRSEDTAVYYCAREGRGYDSSRYYKFWFDPWGQGTLVTVSS
VL: B16 VL with K53N, V91F, L92V, N93L, Y94W, L96R
B20: 27587 (antibody, human IgG4 S228P, kappa, V domains shown)
VH: B4 VH with A20V, R65Q, T79A, R107K
VL: B16 VL with V91D, L92V, N93L, Y94W
B21: 27550 (antibody, human IgG4 S228P, kappa, V domains shown)
VH: EVQLVESGGGLVKPGGSLRLSCAASGFTFSSYSMNWVRQAPGKGLEWVSSISSSSSYIYYADSVKGRFTISRDNAKNSLYLQMNSLRAEDTAVYYCARERRGSLALGMDVWGQGTLVTVSS
VL: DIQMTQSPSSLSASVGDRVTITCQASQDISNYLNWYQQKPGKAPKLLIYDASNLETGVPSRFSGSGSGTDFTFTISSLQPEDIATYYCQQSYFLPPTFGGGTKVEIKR

Target: T1, cynomolgus macaque (Macaca fascicularis) CD39 (Macaca fascicularis, UniProt P49961 7-510 (human entry))
T1 construct: On engineered CHO cells and on primary cyno B cells and monocytes; also called cyno CD39; cCD39
T1 chain: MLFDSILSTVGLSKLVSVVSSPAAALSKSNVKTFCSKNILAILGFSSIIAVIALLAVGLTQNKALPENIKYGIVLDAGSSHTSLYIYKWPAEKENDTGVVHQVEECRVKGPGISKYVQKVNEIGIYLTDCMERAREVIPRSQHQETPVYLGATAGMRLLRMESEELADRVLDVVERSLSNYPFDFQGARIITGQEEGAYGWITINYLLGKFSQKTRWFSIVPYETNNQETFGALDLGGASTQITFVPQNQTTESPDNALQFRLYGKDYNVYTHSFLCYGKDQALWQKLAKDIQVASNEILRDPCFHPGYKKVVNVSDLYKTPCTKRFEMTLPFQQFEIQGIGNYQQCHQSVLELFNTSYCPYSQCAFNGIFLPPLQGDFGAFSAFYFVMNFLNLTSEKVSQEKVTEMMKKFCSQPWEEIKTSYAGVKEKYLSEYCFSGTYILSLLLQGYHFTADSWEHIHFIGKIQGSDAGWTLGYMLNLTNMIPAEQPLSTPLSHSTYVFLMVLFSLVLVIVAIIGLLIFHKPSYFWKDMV
Test: flow cytometry, 100 nM IgG, MFI on CHO-cCD39 / MFI on parental CHO;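 also: antibodies bound to the cells for 30 min in PBS, then bound IgG was revealed with a fluorescent goat anti-human IgG secondary antibody, 20 min on ice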

Binder | Cell Binding (FOB) [fold over background]
B1 | 44
B2 | 566
B3 | 14
B4 | 1610
B5 | 2960
B6 | 5480
B7 | 2670
B8 | 3050
B9 | 3800
B10 | 3530
B11 | 4190
B12 | 1340
B13 | 339
B14 | 113
B15 | 531
B16 | 738
B17 | 257
B18 | 260
B19 | 908
B20 | 1400
B21 | 2870

What follows are binders tested against T2, human CD39 (cellular) (human, UniProt P49961 1-510) (assay: flow cytometry, 100 nM IgG, MFI on CHO-hCD39 / MFI on parental CHO;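 also: cells exposed to IgG for 30 min on ice in PBS, bound antibody then revealed with a fluorescent goat anti-human IgG secondary (20 min, on ice)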).
T2 construct: Same protein on engineered CHO cells and on cells that express it endogenously; also called hCD39; cellular CD39
T2 sequence: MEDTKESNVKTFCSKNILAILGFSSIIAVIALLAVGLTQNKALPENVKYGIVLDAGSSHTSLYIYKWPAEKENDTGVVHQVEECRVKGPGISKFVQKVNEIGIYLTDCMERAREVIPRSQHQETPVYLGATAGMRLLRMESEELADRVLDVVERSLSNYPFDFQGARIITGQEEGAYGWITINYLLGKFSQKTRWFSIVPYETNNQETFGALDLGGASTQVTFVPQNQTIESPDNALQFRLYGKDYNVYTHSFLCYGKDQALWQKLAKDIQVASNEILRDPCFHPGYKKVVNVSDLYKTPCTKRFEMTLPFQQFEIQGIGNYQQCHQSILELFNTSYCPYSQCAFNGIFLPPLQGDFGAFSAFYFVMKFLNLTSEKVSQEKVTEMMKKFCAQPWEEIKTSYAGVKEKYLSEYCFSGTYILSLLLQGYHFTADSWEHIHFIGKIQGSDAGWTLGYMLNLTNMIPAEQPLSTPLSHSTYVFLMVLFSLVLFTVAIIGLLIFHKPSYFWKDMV

Binder | Cell Binding (FOB) [fold over background]
B1 | 33
B2 | 822
B3 | 10
B4 | 1400
B5 | 1060
B6 | 1430
B7 | 1950
B8 | 1080
B9 | 1290
B10 | 1240
B11 | 1450
B12 | 1020
B13 | 390
B14 | 89
B15 | 311
B16 | 301
B17 | 252
B18 | 267
B19 | 799
B20 | 1450
B21 | 2030
